Reference: the supplement of paper PMC9170038

System: MS2 coat protein
Assay: apparent KD of MS2 coat protein; designed switch direction (-1 OFF switch, 1 ON switch): -1; higher = weaker reporter binding
Summary of the method: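 RNA switches sharing common flanks were transcribed by stalled E. coli RNA polymerase on Illumina chips. A doubling series of SNAP-549-labelled MS2 coat protein, from 0.7 or 1.5 nM to 3 µM, was applied in Tris-HCl pH 7.5 buffer with KCl, MgCl2, BSA, DTT, tRNA and Tween-20. Each step lasted 0.8–1.5 h at the bottom of the series and 10–20 min at the top. Normalised cluster fluorescence was curve-fitted, giving apparent KD as the per-design median over clusters.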

[1] = input ligand: microRNA oligo, concentration not stated
[2] = Eterna round: R95, input ligand: microRNA oligo, concentration not stated
[3] = Eterna round: R95, input ligand: FMN 200 uM
[4] = Eterna round: R95, input ligand: none

Row | Sequence | apparent KD of MS2 coat protein (input ligand: FMN 200 uM) [nM] | apparent KD of MS2 coat protein (input ligand: none) [nM] | apparent KD of MS2 coat protein [2] [nM] | further results
1 | CUUUUUUCUGUAAGGAUAUAGCCCGCGAGAUGUGGCUAGAAGGUACAUGAGGAUCACCCAUGUGUGUCCACAUU [Eternabot (L1) Solution 55] (Eterna round: R97, puzzle: Brourd's mod of Exclusion 4) | 141 | 46.8 | – | –
2 | UGCCUUUGAGGAUAUACAUAGAAAUAGAUUCAUGUAAAACUACAUGAGGAUCACCCAUGUAGAAGGCAAGGGCU [Mat - Exclusion 2 - JL Mod - D52] (Eterna round: R97, puzzle: Exclusion 2) | 83.6 | 24 | – | –
3 | GCAGCUAAUCGAGGAUAUCAGCACGUUUAGUGCUGAGAAGGCGACAUGAGGAUCACCCAUGUGAUCAAUUAAUAUUAAUGCUGC [ENG1/11-A2] (Eterna round: R96, puzzle: Exclusion NG 1) | 1270 | 659 | – | apparent KD of MS2 coat protein [1]: 344 nM
4 | ACACAACAUGAGGAUCACCCAUGUCAGGAUAUGCAGAACAAGAACAAGACAAGACAGAGCAGAAGGGACAACAC [Ex 1 M5] (puzzle: Exclusion 1) | – | – | 32.8 | –
5 | UGAGAGUCAGGAUAUCGAAGGUAGUGGAGAGGAGUGUGGUACGAGAAGGGACAUGAGGAUCACCCAUGUAGGUG [JR_Exclusion4)Sub009] (puzzle: Exclusion 4) | – | – | 420 | –
6 | GCAGCAAAUUCCACUAAAAUCACAUGAGGAUCACCCAUGUCUCAGGAUAUGGUCUGGAUUACAGGCCAGAAGGGAGAAAGCUGC [Eli exng3 - 057] (Eterna round: R96, puzzle: Exclusion NG 3) | 25.8 | 27.6 | – | apparent KD of MS2 coat protein [1]: 23.6 nM
7 | AGUAACUAUCACGAAAGUGAUAGUUACACAAGCAGUGAUACAUGAGGAUCACCCAUGUCCUCAUUUGCUCGUCUUAU [Sensor 3 - 28] (Eterna round: R96, puzzle: Sensor v3, turn-off variant 2) | 87.4 | 91.9 | – | apparent KD of MS2 coat protein [1]: 472 nM
8 | UCGGCGCGAGGAUAUGCGGUUGCUCCCUAGGGUCGGAGCGUACAUGAGGAUCACCCAUGUAGAAGGCGCGCCGC [Apr-15 SS2-34] (puzzle: Exclusion 2) | – | – | 12.4 | –
9 | UGCAUGCUAGGAUAUACGGGACAUUAGGGUUCGUUGUGUGGACAUGAGGAUCACCCAUGUAGAAGGAGCGUGCU [Mod of JL-ex2-2.15 mat747 mod] (puzzle: Exclusion 2) | – | – | 69.3 | –
10 | GUUAAGUGAGGAUAUGGUGAGUAGUGCCUGAGCGCUGCUCACCAGAAGGCACAUGAGGAUCACCCAUGUAUAAC [Mat - Exclusion 4 - Mod of JL - D16] (puzzle: Exclusion 4) | – | – | 19.9 | –
11 | AAAAGUUAAGGAUAUACUUGAGGAUCACCCAAGUAGGUGGCUUCAGCCGGAAACCGGCGUAGAAGGUAGCAGAA [Laentezabe] (Eterna round: R97, puzzle: Exclusion 3) | 54.9 | 56.3 | – | –
12 | AAAGAUCAGGUGAGGAUAUACAUAUCGAAAGAUAUGUAGAAGGCACAUGAGGAUCACCCAUGUAUAAGGUUACC [Alacar 2] (Eterna round: R97, puzzle: Brourd's mod of Exclusion 4) | 313 | 52.1 | – | –
13 | GAGCCGCGAGGAUAUACAGACGAGUCCAUUACGUGUCUCGGACUUGAGGAUCACCCAAGUAGAAGGCGUCUCAG [salish99_ex2_r4_629] (Eterna round: R97, puzzle: Exclusion 2) | 34.3 | 34.2 | – | –
14 | CACCGUUAAGGAGGAUAUCGUACAUGAGGAUCACCCAUGUAAUAAAUGAGAAUUUCGGAUGUAUGCGAGAAGGCCUAAAUCGGC [Ostracism 44 - Jieux - Exclusion NG 2] (Eterna round: R96, puzzle: Exclusion NG 2) | – | – | – | apparent KD of MS2 coat protein [1]: 34.7 nM
15 | UACAUGAGGAUCACCCAUGUUUUGUCGUGUAUGGUAUUUAUCUAGGAUAUCAAUUUGUUUAGUUAUGAGAAGGAGAAUAUUAAU [JMF's solution 71] (Eterna round: R96, puzzle: Exclusion NG 3) | 35.9 | 37.6 | – | apparent KD of MS2 coat protein [1]: 33.3 nM
16 | ACAAGCUUUGUUGUGGGUGACAUGAGGAUCACCCAUGUUUGCCGCGUCUUGUGGGCCCGGGCCCGCGGCCCGGGCCC [-42.5, -64.4, A 12%] (Eterna round: R97, puzzle: Sensor, turn-off variant 1) | 202 | 173 | – | –
17 | UUCCUCGUUGUGAGGAUAUCGUCCGUGUUUUGUUACGAGAAGGCACAUGAGGAUCACCCAUGUUUUUUGUUUUU [JR_BMOE4_Sub075] (puzzle: Brourd's mod of Exclusion 4) | – | – | 40 | –
18 | CGAGUCUACGAGGAUAUACUUUGAAUUAUCGGCGUAGAAGGCGUGACUUGAGGAUCACCCAAGUGAUAAACCUA [Ririaned] (Eterna round: R97, puzzle: Exclusion 6) | 54.1 | 39.6 | – | –

Row | Sequence | apparent KD of MS2 coat protein (input ligand: FMN 200 uM) [nM] | apparent KD of MS2 coat protein (input ligand: none) [nM] | apparent KD of MS2 coat protein [2] [nM] | further results
19 | AUUUAUGUUGAGGAUAUGCGAAUAAGUAUAGUUGCAGAAGGCGACACAUGAGGAUCACCCAUGUUCAUGGACCC [LRO-Ex6-02] (puzzle: Exclusion 6) | – | – | 81.5 | apparent KD of MS2 coat protein [3]: 181 nM; apparent KD of MS2 coat protein [4]: 127 nM
20 | AAUUAUUUUUGAGGAUAUGGUGGUGAAACACCACCAGAAGGCGGAAUAAACAUGAGGAUCACCCAUGUGAGCCUGAUGCUUAUG [Ex NG1 #47] (Eterna round: R96, puzzle: Exclusion NG 1) | – | – | – | apparent KD of MS2 coat protein [1]: 17.5 nM
21 | AAGAAACAUGAGGAUCACCCAUGUGAGGAUAUGGCCCGCCCGGCGUGAGCUGGUUUAAUCAGAAGGCACAAAGG [salish99_ex1_r4_014] (Eterna round: R97, puzzle: Exclusion 1) | 44.8 | 38.1 | – | –
22 | AAUCUACAUGUAGGAUAUGCGUGGCGAAGCUAUGCAGAAGGACAUGAGGAUCACCCAUGUUUUAGCGUCUGCGUACAGAUGCGA [Mat - Exclusion NG 1 - Mod of JL - D99] (Eterna round: R96, puzzle: Exclusion NG 1) | 269 | 27.2 | – | apparent KD of MS2 coat protein [1]: 24.4 nM
23 | AAGUAUAGAGGAUAUAGUGAGUACUACAUGAGGAUCACCCAUGUUCUUCAAAACGUAUUUCUAGAAGGCUGAUAAA [EX-5 Malc#21] (puzzle: Exclusion 5) | – | – | 47.8 | apparent KD of MS2 coat protein [3]: 110 nM; apparent KD of MS2 coat protein [4]: 59.1 nM
24 | GAUUAUGCGAGCUUUAGGGACAUGAGGAUCACCCAUGUUCGUCUUAUUAGUCUGGAUACACUGACAUACCUAAAUCU [JMF 59] (puzzle: Sensor v3, turn-off variant 1) | – | – | 20.9 | apparent KD of MS2 coat protein [3]: 14.8 nM; apparent KD of MS2 coat protein [4]: 16.4 nM
25 | CUGAGUAUAGGAUAUACAUGAGGAUCACCCAUGUAGAAACAAGGGUCUUACAACUAAAGUAGAAGGAUAUUUGG [ExFusion 7 - Jieux - Exclusion 3] (Eterna round: R97, puzzle: Exclusion 3) | 112 | 48.2 | – | –
26 | UAAUGUGCGAGAGGAUAUCGUGUACAAAGUACACGAGAAGGCUUCACAUGAGGAUCACCCAUGUACCGAGGUGAAACACCUUGA [Omei Exc(NG)1 B] (Eterna round: R96, puzzle: Exclusion NG 1) | 950 | 383 | – | apparent KD of MS2 coat protein [1]: 110 nM
27 | GCAUCGUGAGGAUAUACAUGAGGAUCACCCAUGUGGCGGAUCUACCAGCCAGCAAAAUGUAGAAGGCAUUGCUU [Eternabot (L2) Solution 19] (Eterna round: R97, puzzle: Exclusion 3) | 123 | 142 | – | –
28 | CGCAAACAUGAGGAUCACCCAUGUGAGGAUAUCAUGCUUCGUAGUAAACUACGAAGUGUGAGAAGGCACGUGCG [Omei Ex1 D4] (Eterna round: R97, puzzle: Exclusion 1) | 42.9 | 29.9 | – | –
29 | UUAUUACGAGGAUAUCGUUUUUAUCACAUGAGGAUCACCCAUGUAAUUUAUGUUUCGUUUCGAGAAGGCGUUUGUU [JR_E5_Sub067] (puzzle: Exclusion 5) | – | – | 23.3 | –
30 | ACAUGAGGAUCACCCAUGUGCACGUAAUGGCUCAUGUAGAGUGAGGAUAUGUGAGACGAACGAGAACAGAAGGCACAAGACAGG [Deportation 8 - Jieux - Exclusion NG 3] (Eterna round: R96, puzzle: Exclusion NG 3) | 106 | 116 | – | apparent KD of MS2 coat protein [1]: 92.8 nM
31 | AAGAGCAGACGGAGAUCCAACAUGAGGAUCACCCAUGUCUCGCAAGCUUUUUGCUUGUCUUAUCCUCCUCUGUUCAC [Esquitian 4] (Eterna round: R97, puzzle: Sensor, turn-off variant 1) | 14.8 | 14.6 | – | –
32 | GUCAUGUUAGGAUAUGAGCGGCGACUUAGAAUGUUUGCUACUUAGAAGGAACAUGAGGAUCACCCAUGUUCUAU [EX4 C.14] (Eterna round: R97, puzzle: Exclusion 4) | 20.2 | 17.2 | – | –
33 | AUGGGUACUUUCGGAACGACAUGAGGAUCACCCAUGUAUACUGAGGAUAUCCACUACUAAGGACGGGAGAAGGCAGUGUACUGU [Ex NG3 #80] (Eterna round: R96, puzzle: Exclusion NG 3) | 27 | 18.5 | – | apparent KD of MS2 coat protein [1]: 12.1 nM
34 | AAUACACAUGAGGAUCACCCAUGUUAGGAUAUGAGCGGGCAGACAGACAGACAGACGAUCAGAAGGAAUAGGAA [Excls1-VI] (puzzle: Exclusion 1) | – | – | 30.2 | apparent KD of MS2 coat protein [3]: 25.5 nM; apparent KD of MS2 coat protein [4]: 28.9 nM
35 | AACGAUCUAGGAUAUACAUGAGGAUCACCCAUGUAAGAGCCCGAACCGGGCUCCCUCUGUAGAAGGAGGUCAAA [Rileququve] (puzzle: Exclusion 3) | – | – | 27.3 | –
